Holding throughout (assay): holdup assay
Design in all cases: key: below the threshold = too weak to quantify, mostly under pKd 3.1 to 4
Details in all cases: plain residues with an end cap or a label only (N-terminal biotin on a linker: ado-ado)

Assay [1] has as its target T1, APBA2_2, Q99767.
T1 sequence (Q99767 654-744, limits assumed, looked up): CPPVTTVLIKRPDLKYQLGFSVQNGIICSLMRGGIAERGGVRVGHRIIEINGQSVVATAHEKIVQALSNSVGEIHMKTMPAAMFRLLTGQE

Assay [2] deals with T2, ARHGAP21, Q5T5U3.
T2 sequence (Q5T5U3 45-169, limits assumed, looked up): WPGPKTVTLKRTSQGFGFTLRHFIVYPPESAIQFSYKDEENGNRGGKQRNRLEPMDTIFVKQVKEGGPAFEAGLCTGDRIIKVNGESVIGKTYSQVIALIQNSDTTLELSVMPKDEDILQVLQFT

The target of assay [3] is DLG1_2, Q12959.
DLG1_2, Q12959, sequence (Q12959 314-412): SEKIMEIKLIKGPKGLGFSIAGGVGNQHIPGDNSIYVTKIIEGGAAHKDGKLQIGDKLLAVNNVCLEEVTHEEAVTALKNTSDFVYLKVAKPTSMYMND
For assay [4], the target named is T3, DLG3_2, Q92796.
T3 sequence (Q92796 221-321, limits assumed, looked up): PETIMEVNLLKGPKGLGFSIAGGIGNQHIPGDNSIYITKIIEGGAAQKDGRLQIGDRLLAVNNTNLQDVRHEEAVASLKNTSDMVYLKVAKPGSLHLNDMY

Assay [5] addresses DLG4_2, P78352.
Assay [6] has as its target T4, DVL3, Q92997.
T4 sequence (Q92997 244-331, limits assumed, looked up): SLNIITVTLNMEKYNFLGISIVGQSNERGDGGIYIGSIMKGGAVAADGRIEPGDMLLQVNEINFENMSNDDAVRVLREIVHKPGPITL

The target in assay [7] is FRMPD2_3, Q68DX3.
FRMPD2_3, Q68DX3, sequence (Q68DX3 1073-1166): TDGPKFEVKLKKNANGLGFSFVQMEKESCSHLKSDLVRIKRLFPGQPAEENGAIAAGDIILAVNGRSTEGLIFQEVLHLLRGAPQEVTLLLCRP
Assay [8] deals with T5, HTRA4, P83105.
T5 sequence (P83105 378-476, limits assumed, looked up): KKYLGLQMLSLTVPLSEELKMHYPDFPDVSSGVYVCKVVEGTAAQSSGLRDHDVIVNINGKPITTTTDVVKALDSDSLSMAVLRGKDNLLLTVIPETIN

Assay [9] deals with Inadl_3, Q8NI35.
Inadl_3, Q8NI35, sequence (Q8NI35 359-469): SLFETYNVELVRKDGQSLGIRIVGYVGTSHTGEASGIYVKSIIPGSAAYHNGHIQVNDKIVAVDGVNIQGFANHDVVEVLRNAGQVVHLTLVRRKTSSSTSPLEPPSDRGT
For assay [10], the target named is Inadl_5, Q8NI35.
Inadl_5, Q8NI35, sequence (Q8NI35 673-780): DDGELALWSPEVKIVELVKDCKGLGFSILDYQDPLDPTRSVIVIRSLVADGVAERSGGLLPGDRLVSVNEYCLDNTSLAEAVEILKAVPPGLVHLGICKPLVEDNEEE
Assay [11] concerns the target LIMK2, P53671.
The target in assay [12] is T6, LNX2_3, Q8N448.
T6 sequence (Q8N448 463-564, limits assumed, looked up): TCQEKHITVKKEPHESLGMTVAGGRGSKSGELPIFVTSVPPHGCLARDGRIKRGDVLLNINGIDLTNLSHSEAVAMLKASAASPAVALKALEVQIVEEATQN

The target of assay [13] is T7, MPP6, Q9NZW5.
T7 sequence (Q9NZW5 125-219, limits assumed, looked up): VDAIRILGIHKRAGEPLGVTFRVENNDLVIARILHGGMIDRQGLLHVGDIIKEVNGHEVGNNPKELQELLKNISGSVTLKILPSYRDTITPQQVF

For assay [14], the target named is T8, NHERF3_1, Q5T2W1.
T8 sequence (Q5T2W1 4-100, limits assumed, looked up): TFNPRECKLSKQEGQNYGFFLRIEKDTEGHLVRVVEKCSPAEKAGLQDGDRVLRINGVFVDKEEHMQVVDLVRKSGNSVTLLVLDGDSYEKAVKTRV

For assay [15], the target named is PDLIM1, O00151.
PDLIM1, O00151, sequence (O00151 1-87): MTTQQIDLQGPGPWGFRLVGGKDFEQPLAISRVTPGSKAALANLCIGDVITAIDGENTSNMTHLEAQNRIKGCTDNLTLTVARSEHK
Assay [16] has as its target T9, PDZD2_2, O15018.
T9 sequence (O15018 329-429, limits assumed, looked up): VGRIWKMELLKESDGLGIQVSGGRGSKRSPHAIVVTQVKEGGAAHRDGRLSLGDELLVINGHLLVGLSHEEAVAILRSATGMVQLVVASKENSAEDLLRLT

The target of assay [17] is T10, RADIL, Q96JH8.
T10 sequence (Q96JH8 971-1071, limits assumed, looked up): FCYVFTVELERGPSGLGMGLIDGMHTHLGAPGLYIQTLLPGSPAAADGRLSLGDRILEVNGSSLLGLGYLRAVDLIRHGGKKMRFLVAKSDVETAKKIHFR

The target in assay [18] is T11, RAPGEF6, Q8TEU7.
T11 sequence (Q8TEU7 525-625, limits assumed, looked up): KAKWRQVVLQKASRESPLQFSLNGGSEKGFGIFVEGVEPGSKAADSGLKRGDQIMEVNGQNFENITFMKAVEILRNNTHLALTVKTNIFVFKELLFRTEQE

In assay [19] the target is T12, SNTB1, Q13884.
T12 sequence (Q13884 107-205, limits assumed, looked up): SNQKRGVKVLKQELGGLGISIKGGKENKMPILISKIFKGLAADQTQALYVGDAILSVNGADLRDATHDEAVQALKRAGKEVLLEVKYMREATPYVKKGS

Assay [20] concerns the target T13, SNTG1, Q9NSN8.
T13 sequence (Q9NSN8 52-150, limits assumed, looked up): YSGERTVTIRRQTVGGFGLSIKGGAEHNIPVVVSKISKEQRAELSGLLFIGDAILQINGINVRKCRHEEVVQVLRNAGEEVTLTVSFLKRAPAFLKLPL

The target of assay [21] is T14, TIAM2, Q8IVF5.
T14 sequence (Q8IVF5 885-986, limits assumed, looked up): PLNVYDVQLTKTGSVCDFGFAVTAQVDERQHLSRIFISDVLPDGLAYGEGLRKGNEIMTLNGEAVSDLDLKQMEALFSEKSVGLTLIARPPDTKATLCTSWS

Assay [22] has as its target TJP1_3, Q07157.

Data on 5 molecules can be found in publication PMC9482650, “Quantitative fragmentomics allow affinity mapping of interactomes” (Nature Communications, 2022).

TJP1_3, Q07157, sequence (Q07157 416-512): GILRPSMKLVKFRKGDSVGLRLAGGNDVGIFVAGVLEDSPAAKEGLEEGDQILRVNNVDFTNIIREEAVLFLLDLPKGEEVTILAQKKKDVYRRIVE
DLG4_2, P78352, sequence (P78352 155-259): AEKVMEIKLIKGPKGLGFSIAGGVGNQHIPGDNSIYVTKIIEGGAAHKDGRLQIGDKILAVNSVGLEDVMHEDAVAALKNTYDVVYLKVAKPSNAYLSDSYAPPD
LIMK2, P53671, sequence (P53671 143-248): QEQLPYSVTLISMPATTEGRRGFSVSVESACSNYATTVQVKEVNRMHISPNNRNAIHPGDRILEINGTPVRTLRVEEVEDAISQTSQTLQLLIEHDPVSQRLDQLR

With LLQEEWETVM [PTH1R, Q03431], the pKd entry in assay [1] was “below the threshold”; in assay [2], 4.11; in [3], “below the threshold”; in assay [4], “below the threshold”; in [5] it was “below the threshold”; in assay [6] it was “below the threshold”. The negative-log Kd (pKd) result in assay [7] is “below the threshold”; in assay [8], “below the threshold”; in assay [9] it was 4.7; in assay [10], “below the threshold”; in assay [11], “below the threshold”; in [12], “below the threshold”. For the same molecule, the pKd entry in [13] was “below the threshold”; in assay [14] it was 5.63; in assay [15], “below the threshold”; in assay [16] it was “below the threshold”; in [17], 3.99; in [18], “below the threshold”. In addition, the negative-log Kd (pKd) is 4.24 in assay [19], “below the threshold” in assay [20], “below the threshold” in assay [21] and “below the threshold” in assay [22].

Turning to LPPPESESKV [KCNJ9, Q92806], the negative logarithm of the Kd (pKd) result in assay [1] is “below the threshold”; in assay [2] it was “below the threshold”; in assay [3] it was 3.54; in assay [4], 4.23; in assay [5], 3.67; in assay [6], “below the threshold”. For the same molecule, the pKd result in assay [7], in assay [8], in [9], in assay [10], in assay [11] and in assay [12] was “below the threshold” throughout. The pKd entry in assay [13] is “below the threshold”; in assay [14], 4.15; in assay [15], “below the threshold”; in assay [16] it was 4.81; in [17], “below the threshold”; in assay [18] it was “below the threshold”. Also, the pKd is 4.32 in assay [19], 4.31 in assay [20], 4.05 in assay [21] and “below the threshold” in [22].

For the molecule SSSVNVSSNL [CXCR1, P25024], the negative logarithm of the Kd (pKd) entry was “below the threshold” in [1]; 3.77 in assay [2]; “below the threshold” in assay [3]; “below the threshold” in assay [4]; “below the threshold” in assay [5]; “below the threshold” in [6]. Moreover, the pKd result is “below the threshold” in [7]; 3.89 in assay [8]; “below the threshold” in [9]; “below the threshold” in assay [10]; “below the threshold” in assay [11]; “below the threshold” in assay [12]. The negative-log Kd (pKd) entry in [13] was “below the threshold”; in assay [14], 4.43; in assay [15], “below the threshold”; in assay [16], 3.69; in [17] it was “below the threshold”; in assay [18] it was “below the threshold”. The pKd result in [19], in assay [20], in [21] and in [22] was “below the threshold” in each case.

For the molecule KKTPVSRSHL [SLC22A3, O75751], the pKd entry in assay [1] is “below the threshold”; in assay [2], 3.97; in [3], 3.52; in assay [4], “below the threshold”; in assay [5], “below the threshold”; in assay [6], “below the threshold”. Also, the pKd result is “below the threshold” in assay [7]; 3.81 in assay [8]; “below the threshold” in assay [9]; “below the threshold” in assay [10]; “below the threshold” in assay [11]; “below the threshold” in assay [12]. Further, the pKd entry is “below the threshold” in assay [13]; 4.39 in assay [14]; “below the threshold” in assay [15]; “below the threshold” in [16]; “below the threshold” in assay [17]; “below the threshold” in assay [18]. The pKd entry in assay [19], in [20], in assay [21] and in [22] was “below the threshold” throughout.

For NNMAFETTHF [SLC5A12, Q1EHB4], the pKd entry in [1] was “below the threshold”; in [2] it was 3.94; in assay [3], “below the threshold”; in assay [4], 4.08; in assay [5] it was “below the threshold”; in [6], “below the threshold”. In addition, the pKd result in [7], in assay [8], in assay [9], in assay [10], in assay [11] and in assay [12] was “below the threshold” in each case. The pKd entry is “below the threshold” in [13]; 5.03 in [14]; “below the threshold” in assay [15]; “below the threshold” in assay [16]; “below the threshold” in assay [17]; “below the threshold” in assay [18]. Also, the pKd entry in [19], in assay [20], in assay [21] and in [22] was “below the threshold” in each case.

As usually defined, the pKd is the Kd on a negative log10 scale, so that one unit is a factor of ten.
